Assays:
[1] = molecular target: T1, MMP-2 substrate G-K(TAMRA)-G-P-L-G-V-R-G-C-CONH2 with 20 kDa PEG, on ligand (biotin) TSACs (Example 3) (not fully specified)
T1 chain: GKGPLGVRGC

[2] = molecular target: T2, MMP-7 substrate G-K(TAMRA)-G-V-P-L-S-L-T-M-G-C-CONH2 with 20 kDa PEG, on receptor (NeutrAvidin) TSACs (Example 3) (not fully specified)
T2 chain: GKGVPLSLTMGC

[3] = molecular target: T3, MMP-7-MMP-2 tandem substrate TAMRA-G-K-G-V-P-L-S-L-T-M-Ahx-G-P-L-G-V-R-G-C-CONH2 with 20 kDa PEG, on ligand (biotin) TSACs (Example 3) (not fully specified)
T3 chain: GKGVPLSLTMGPLGVRGC

B1: catalytic domain of matrix metalloproteinase-7 (MMP-7; Biomol) (protein)
chain: YSLFPNSPKWTSKVVTYRIVSYTRDLPHITVDRLVSKALNMWGKEIPLHFRKVVWGTADIMIGFARGAHGDSYPFDGPGNTLAHAFAPGTGLGGDAHFDEDERWTDGSSLGINFLYAATHELGHSLGMGHSSDPNAVMYPTYGNGDPQNFKLSQDDIKGIQKLYGKRSNSRKK
TSAC assembly in DLS [1]: Addition of 0.4 µg MMP-2 actuates TSAC assembly, while 0.4 µg MMP-7 or no enzyme is insufficient
TSAC assembly in DLS [2]: addition of 0.4 µg MMP-7 induces assembly, while 0.4 µg MMP-2 cannot
hydrodynamic radius increase in DLS [3]: Hydrodynamic radii increased more than 5-fold in the presence of either enzyme or both enzymes
